Data reported in patent US20210388087A1 (Chugai, published 2021).
Substitutions are numbered along the chain they refer to.

B1: H183/L072 VL E27aP (antibody, name in Kabat numbering, V domains shown)
VH: QVQLVESGGGLVQPGRSLRLSCAASGFTFSNAWMHWVRQAPGKGLEWVAQIKDKGNAYAAYYAPSVKGRFTISRDDSKNSIYLQMNSLKTEDTAVYYCHYVHYASASTVLPAFGVDAWGQGTTVTVSS
VL: DIVMTQSPLSLPVTPGEPASISCQASQPLVHMNRNTYLHWYQQKPGQAPRLLIYKVSNRFPGVPDRFSGSGSGTDFTLKISRVEAEDVGVYYCAQGTSVPFTFGQGTKLEIK
notes: Dual-Ig
B2: H183/L072 VL E27aQ (antibody, name in Kabat numbering, V domains shown)
VH: B1 VH
VL: B1 VL with P28Q
notes: Dual-Ig
B3: H183/L072 VL F55D (antibody, name in Kabat numbering, V domains shown)
VH: B1 VH
VL: B1 VL with P28E, F60D
notes: Dual-Ig
B4: H183/L072 VL E27aT (antibody, name in Kabat numbering, V domains shown)
VH: B1 VH
VL: B1 VL with P28T
notes: Dual-Ig
B5: H183/L072 VL F55N (antibody, name in Kabat numbering, V domains shown)
VH: B1 VH
VL: B1 VL with P28E, F60N
notes: Dual-Ig
B6: H183/L072 VL F55P (antibody, name in Kabat numbering, V domains shown)
VH: B1 VH
VL: B1 VL with P28E, F60P
notes: Dual-Ig
B7: H183/L072 VL E27aR (antibody, name in Kabat numbering, V domains shown)
VH: B1 VH
VL: B1 VL with P28R
notes: Dual-Ig
B8: H183/L072 VL F55L (antibody, name in Kabat numbering, V domains shown)
VH: B1 VH
VL: B1 VL with P28E, F60L
notes: Dual-Ig
B9: H183/L072 VL F55K (antibody, name in Kabat numbering, V domains shown)
VH: B1 VH
VL: B1 VL with P28E, F60K
notes: Dual-Ig
B10: H183/L072 VL F55I (antibody, name in Kabat numbering, V domains shown)
VH: B1 VH
VL: B1 VL with P28E, F60I
notes: Dual-Ig
B11: H183/L072 VL E27aY (antibody, name in Kabat numbering, V domains shown)
VH: B1 VH
VL: B1 VL with P28Y
notes: Dual-Ig
B12: H183/L072 VL F55G (antibody, name in Kabat numbering, V domains shown)
VH: B1 VH
VL: B1 VL with P28E, F60G
notes: Dual-Ig
B13: H183/L072 VL F55H (antibody, name in Kabat numbering, V domains shown)
VH: B1 VH
VL: B1 VL with P28E, F60H
notes: Dual-Ig
B14: H183/L072 VL F55M (antibody, name in Kabat numbering, V domains shown)
VH: B1 VH
VL: B1 VL with P28E, F60M
notes: Dual-Ig
B15: H183/L072 VL E27aS (antibody, name in Kabat numbering, V domains shown)
VH: B1 VH
VL: B1 VL with P28S
notes: Dual-Ig
B16: H183/L072 VL F55E (antibody, name in Kabat numbering, V domains shown)
VH: B1 VH
VL: B1 VL with P28E, F60E
notes: Dual-Ig
B17: H183/L072 VL E27aW (antibody, name in Kabat numbering, V domains shown)
VH: B1 VH
VL: B1 VL with P28W
notes: Dual-Ig
B18: H183/L072 VL F55Q (antibody, name in Kabat numbering, V domains shown)
VH: B1 VH
VL: B1 VL with P28E, F60Q
notes: Dual-Ig

The binders below were run against T1, Human CD137 ECD (human) (assay: Biacore SPR, vs parent H183/L072).
T1 construct: entry includes C-terminal His-tag and biotin acceptor peptide; also called human CD137 extracellular domain; 4-1BB
T1 sequence (chain, as listed by the source limits assumed): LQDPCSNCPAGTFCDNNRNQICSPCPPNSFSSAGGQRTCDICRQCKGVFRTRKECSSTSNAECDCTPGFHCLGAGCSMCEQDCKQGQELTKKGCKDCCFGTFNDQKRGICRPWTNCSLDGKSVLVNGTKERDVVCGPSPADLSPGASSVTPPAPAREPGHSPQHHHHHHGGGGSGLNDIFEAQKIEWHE

| Binder | fold change of affinity |
| --- | --- |
| B1 | 0.8 fold |
| B2 | 1.1 fold |
| B3 | 0 fold |
| B4 | 0.5 fold |
| B5 | 0 fold |
| B6 | 0 fold |
| B7 | 0.9 fold |
| B8 | 0.2 fold |
| B9 | 0 fold |
| B10 | 0 fold |
| B11 | 1.1 fold |
| B12 | 0 fold |
| B13 | 0 fold |
| B14 | 0.2 fold |
| B15 | 0.6 fold |
| B16 | 0 fold |
| B17 | 1 fold |
| B18 | 0 fold |
